Earlier results on one substance are cited in paper PMC9265785.

What is called Kd is the equilibrium constant for the complex coming apart.

The series addresses Pex5 (Saccharomyces cerevisiae) (UniProt P35056).
UniProt P35056, sequence (P35056 whole entry): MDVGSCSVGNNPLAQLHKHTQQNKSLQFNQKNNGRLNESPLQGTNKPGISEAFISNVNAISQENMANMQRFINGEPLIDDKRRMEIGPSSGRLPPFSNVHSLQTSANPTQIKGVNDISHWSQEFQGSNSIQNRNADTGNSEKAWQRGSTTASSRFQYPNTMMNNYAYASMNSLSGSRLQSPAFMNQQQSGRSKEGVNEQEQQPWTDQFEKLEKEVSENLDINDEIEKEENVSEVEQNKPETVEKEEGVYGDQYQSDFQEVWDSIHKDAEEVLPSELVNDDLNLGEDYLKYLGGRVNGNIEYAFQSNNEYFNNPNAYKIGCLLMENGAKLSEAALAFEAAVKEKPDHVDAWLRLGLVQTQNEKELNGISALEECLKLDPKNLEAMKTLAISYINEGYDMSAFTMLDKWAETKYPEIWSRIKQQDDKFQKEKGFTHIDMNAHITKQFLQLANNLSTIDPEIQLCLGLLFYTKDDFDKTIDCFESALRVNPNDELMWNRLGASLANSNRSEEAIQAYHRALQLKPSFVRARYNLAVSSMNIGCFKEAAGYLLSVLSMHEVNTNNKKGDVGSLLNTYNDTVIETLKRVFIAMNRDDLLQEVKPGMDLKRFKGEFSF

Pex1 (from UniProt P24004): the dissociation constant (Kd) was 1000 nM.
